Measured values: the nanobody polyreactivity screen of Harvey et al. (2022)

Assay: yeast display, Sf9 membrane polyspecificity reagent, FACS + sequencing; frameworks hold sequencing errors
How it was run: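 Using colony PCR, genes from sorted yeast display clones were amplified, then sequenced on MiSeq at 2 × 250 and filtered by CDR length. The clones had been stained with 10% biotinylated, detergent-solubilized Sf9 membrane reagent for 1 hour at 4 °C and sorted by FACS into low and high (top ~1%) gates on anti-HA and streptavidin fluorescence. Polyreactivity labels come from the gate of origin.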

| Sequence | polyreactivity (PSR sort gate) |
| --- | --- |
| QVQLVESGGGLVQAGGSLRLSCAASGLIFYRNAMGWYRQAPGKERELVAAISVSGGSTYYADSVKGRFTISRDNAKNTVYLQMNSLKPEDTAVYYCAAKTWRSRGLEMDYWGQGTQVTVSS | high polyreactivity |
| QVPLVESGGGLVQAGGSLRLSCAASGSICWSYAMGWYRQAPGTERELVASITRSGGSTYYADSVKGRFTISRDYAKNSLYLQLNSLKPEETAVYYCNARRTTRWGSSKYEYDYWGQATQVTVSS | high polyreactivity |
| QVQLVESGGGLVQAGGSLRLSCAASGRTFARNVMGSYRQAPGKERELVAAIRGSGGSTYYADSVKGRFTISRDNSKNTVYLQMNSLKPEDTAVYYCAADSSYTKRYSPTKLHFEYWGQGTQVTVSS | high polyreactivity |
| QVQLVESGGGLVQAGGSLRLSCAASGRIFWFNSMGWYRQAPGKERELVAAIDSVGSTYYADSVKGRFTISRDNAKNTVYLQMNSLKPEDTAVYYCAKSTRPVSGVPDGPLYEYWGQGTQVTVSS | low polyreactivity |
| QVQLVESGGGLVQAGGSLRLSCAASGSTFVFYAMGWYRLAPGKDRELVAINSGGSTYYADSVKGRFTISRDNAKNTVYLQMNSLKPEDTAVYFCAKDPLRVWRFDYWGQGTQVTVSS | low polyreactivity |
| QVQLVESGGGLVQAGGSLRLSCAASGFTFSYYAKGWYRQAPGKERELVAVISDRGGITYYADSVKGRFTISRDNAKNTVYLQMNSLKPEDTAVYYCAAQNPRYNDRYYYWGQGTQVTVSS | low polyreactivity |
| QVQLVESGGGLVQAGGSLRLSCAASGRTFFPNAMGWYRQAPGKERELVAAISSGGSTYYADSVKGRFTISRDNAKNTVYLQMNSLKPEDTAVYYCAVYGFYSKYGYWGQGTQVTVSS | high polyreactivity |
| QVQLVESWGGLVQAGGSLRLSSAASGLTFWYYAMGCNRQAPGKESELVAAITSVGSSYYADSVKGRFTISRDNAKQTVYLQMNSLKPEDTAVYYCAAGVPPLYFRRGGDYWGQGTQVTVSS | high polyreactivity |
| QVQLVESGGGLVQAGGSLRFSCAASGSILYGYAIGWYRQAPGQETELVAAIRLTGGSTYYADSVKGRFTISRDNAKNTVYLQMNSLKPEDTAVYYCAAEYNLRNYWGDYWGQGTLVTVSS | low polyreactivity |
| QVQLVESGGGLVQAGGSLRLSCAASGRTFEHYAMGWYRQAPGKEREFVAVIDSSDGSTYYADSVKGRFTISRDNAKNTVYLQMNSLKPEDTAVYYCLGGYYYLQYDYWGQGTQVTVSS | low polyreactivity |
| QVQLVESGGGLVQAGGSLRLSCAASGGIFYSYAMGWYRQAPGKERELVAAISGRGGSTYYADSVKGRFTISRDNAKNSVNLQMNSLKPEDTAVYYCNALGSQRYDYWGQGTQVTVSS | high polyreactivity |
| QVQLVESGGGLVQAGGSLRLSCAASGSTFGKYAMGWYRPAPGKERELVAGITYSGGSTYYADSVKGRFTISRDNAKNTVYLQMNSLKPEDTAVYYCAADGSYYTDFVASKYDYWGQGTQVTVSS | low polyreactivity |
| QVQLVESGGGLVQAGGSLRLSCAASGYIFTFYTMGWYRQEPGKERDLVAAISQTGGRTYYADSVKGRFTISRDNAKNTVYLEMNSLKPEDTAVYYCAARSKRLAHDYWGQGTQVTVSS | high polyreactivity |
| QVQLVESGGGLVQAGGSLRLSCAASGITFWKYAMGWYRQAPGKERELVAAISKSGGSTYYADSVKGRFTISRDNAKNTVYLQMNSLKPEDTAVYYCAAYPQFWYWDYNYWGQGTQVTVSS | high polyreactivity |
| QVQLVESGGGLVQAGGSLRLSCAASGFIFDYYAMGWYRQAPGKERELVAAITSRGGSTYYADSVKGRFTISRDNAKNTVYLQMNSLKQEDTAVYYCAARRRSAEYNYWGHGTQVTVSS | high polyreactivity |
| QVQLVESGGGLVQAGGSLRLSCGASGIIFASNGMGWYRQAPGKERELVAAISSGGSTNYADSVKGRFTISRDNAKNTVYLQMNSLKPEDTSVYYCAADRWYREYDYWGQATQVTVSS | low polyreactivity |

| Sequence | polyreactivity (PSR sort gate) |
| --- | --- |
| QVQLVESGGGLVQAGGSLRLSGAASGGTFDYYAMGRYRQAPGKERELVAAISTSGGRTYYADSVKGRFTISRDNAKYTVYLQMNSLKPEDTAVYYCAALSPRAKYASFYYWGQGTQVTVSS | high polyreactivity |
| QVQLVESGGGLVQAGGSLRLSCAASGITFVLYAMGWYRQAPGKERELVAAITWRGGSTYYADSVKGRFTISRDNAKNTVYLQMNSLKPEDTAVYYCAAVQFTSYRQGDYWGQGTQVTVSS | low polyreactivity |
| HGQLVESGGGLVHAGGSLRLSCAASGSTFAIYALGWYREAPGKERELVAGITGRGTSTYYADSVKGRFTISRDNAKNTVYLQMNSLKPEDTAVYYCNKVRYAFRYDYWGQGTQVTVSS | high polyreactivity |
| QVQLEETGGGLVQAGGSLRLSCAASGLTFGVYAMGRYRQAPGKEMELVAAITWRGDTTYYADSVKGRFTISRYNAKNTVYLQMNSLKPEDSAVYYCAKDVPYRRVRSEYWGQGTQVTVSS | low polyreactivity |
| QVQLVESGGGLVQAGGSLRLSCAASGITFAYNTMGWYRQAPGKERELVAGISVSGASTYYADSVKGRFTISRDNAKNSVYLQMNSLKPEDTAVYYCAAPRWVANQYREYDYWGQGTQVTVSS | high polyreactivity |
| QVQLVESGGGLVQAGGSLRLSCAASGFIFAGNAMGWYRQAPGKERELVAAISGSGGSTYYADSVKGRFTISRDNAKNTVYLQMNSLKPEDTAVYYCNAVYYRYYDVEGFDYWGQGTQVTVSS | high polyreactivity |
| QVQLVESGGGLVQAGGSLRLSCAASGRTFDSNTMGWYRQAPGKERELVAAITGSGGRTYYADSVKGRFTISRDNAKNTVYLQMNSLKPEDTAVYYCNADSLYRYGSQYYYWGQGTQVTVSS | high polyreactivity |
| QVQLVESGGGLVQAGGSLRLSCAASGSNFPGYAMGWYRQAPGKERELVAAISTSGGSTYADSVKGRFTISRDNAKNTVYLQMNSLKPEDTAVYYCAATYTYTSPVYYSLDGPWPYDYWGQGTQVTVSS | low polyreactivity |
| QVQLVESGGGLVQAGGSLRLSCAASGRTIRGYAMGWYRQAPGKERELVAAITRSGGSTFADSVKGRFTISRDNAKNTVYLQMNSLKPEDTAVYYCAADRGYKYYYWGQGTQVTVSS | high polyreactivity |
| QVQLVESGGGLVQAGGSLRLTCASSGIIFKLYAMGWYRQAPAKESELVAAITYRGGTTYYADSVKGRFTITRDNAKNTVYLQMNSLKPEDTAVYYCAVAVTSYSSKKLYYWGQGTQVTVSS | low polyreactivity |
| QVQLVESGGGLVQAGGSLRLSCAASGRTFKDYVMGWYRQAPGKERELVAAITWRGGRTYYADSVKGRFTISRDNAKNTVYLQMNSLKPEDTAVYYCAAAEYFVSGGIMDYWGQGTQVTVSS | high polyreactivity |
| QVQLVESGGGLDQAGGSLRLSCAASGFTFTGYAMGWYRQAPGKERELVAAITRGGGSTYYADSVKGRFTISRDNAKNTVYLQMNSLKPEDTAVYYSAAQRSRLIRISSPYYGHDYWGQGTQVTVSS | low polyreactivity |
| QDQLVESGGGLDQAGGSLRLSCAATGGIIRQNVMGWYRQPPGKERELVAAISRRGVITYYADSVKGRFTISRDNAKNTVYLQMNSLKPDDTAVYYCNYKPTWDYSYWGQGTQLTVSS | high polyreactivity |
| QVQLVESGGGLVQAGGSLRLSCAASGSIFSHNAMGGYRQAPGKERELVASITGSGGSTYYAASVKGRFTISRDNAKNTVYLQMNSLKPEDTAVYYCAATYYPDVRGMDYWGQGTQVTVSS | low polyreactivity |
| QVQLVESWGGLVQAGGSLRLSCAASGRTFAYYAMRWYRQAPGKERELVAAISSGGRTNYADSVKGRFTISRDNAKNTVYLQMNSLKPEDTAVYYCARKASYQIYNGQYGGFGYGYWGQGTQVTVSS | high polyreactivity |
| QLQLVESGGGLVQAGGSLRITCAASGSTFLTYSMGWYRQAPGKESELVAGISYSTGSTYYADSVKGRFTISRDNAKYTVYLQMNSLKPEDTAVYYCAADEWDCLWYYYYFNYEYWGQGTQVTVSS | low polyreactivity |
